Test results: patent US7572594B2, “Screening assays for agonists or antagonists or receptor activator of NF-κB” (Immunex Corporation, priority 2000, dated 2009)

Assays:
[1] = system: mouse MMP-9 mRNA; experiment: Quantitative RT-PCR of MMP-9 mRNA in RAW 264.7 cells; assay type: cell-based; details: RANKL/LZ 200 ng/ml or TNFα 20 ng/ml, various times
Source text: MMP-9 mRNA is elevated greater than 350-fold by RANK-L, but is not increased by TNFα. This specificity is helpful in screening for inhibitors of RANK signal transduction.

[2] = system: mouse TRAP mRNA; experiment: Quantitative RT-PCR of TRAP mRNA in RAW 264.7 cells; assay type: cell-based; details: RANKL/LZ 200 ng/ml or TNFα 20 ng/ml, various times
[3] = system: MMP-9 promoter (nucleotides 1769-3591 of SEQ ID NO:11); experiment: pSIR/MMP-9 hIL-2 αR reporter in RAW264.7 cells, flow cytometry; assay type: cell-based, murine; details: RAW264.7 cells stably expressing pSIR/MMP-9
Source text: The location of the RANK-responsive portion of MMP-9 promoter was more narrowly identified by testing further truncations of the promoter. A PVUII/BGL2 restriction fragment including the 5′-proximal 1822 bp of the MMP-9 promoter was fused with a BLGII/EcoRI restriction fragment encoding the human IL-2 receptor a in the multicloning site of the pSIR retroviral vector (Clontech). The resulting plasmid, which was named pSIR/MMP-9, is responsive to RANK and is useful in assays to identify RANK antagonists. The region of the MMP-9 promoter present in pSIR/MMP-9 corresponds to nucleotides 1769-3591 of SEQ ID NO:11.
pSIR/MMP-9 was introduced into RANK responsive cells as follows. Retroviral particles were prepared after transfection of 293/E packaging cells with pSIR/MMP-9. RAW264.7 cells were infected with these particles and neomycin resistant colonies stably expressing the reporter were isolated. Treatment of these cells with RANKL led to an increase in the cell surface expression of the hIL-2 αR, as detected by flow cytometry using the mouse mAb (clone 2A3) anti-human IL-2 αR as a reagent for detecting the IL-2R. […]
Surface expression of human IL-2α receptor is detected by flow cytometry in the following manner. […] After washing the cells, the fluorescence intensity is measured using a flow cytometer, such as a FACS scan (Becton Dickinson).

[4] = system: RANK; experiment: radioimmune assay of reporter surface expression in 293/EBNA cells; assay type: cell-based; details: 48 hours after transfection
Description: Additionally, surface expression of human IL-2α receptor can be analyzed using a radioactive antibody against IL-2α receptor. For the mIL-4R-specific radioimmune assay, mouse anti-human IL-2α monoclonal antibody reactive with mIL-4R was labeled with ^125I via a Chloramine T conjugation method; the resulting specific activity is typically […]. After 48 hours, cells transfected with pGL2-MMP-9/human IL-2 receptor were washed once with media (DMEM, 12 5% FBS). Non-specific binding sites were blocked by the addition of pre-warmed binding media containing 5% non-fat dry milk and incubation at 37° C./5% CO2 in a tissue culture incubator for one hour. The blocking media was decanted and binding buffer containing ^125I anti-mIL-4R (clone M1; rat IgG1) was added to the cells and incubated with rocking at room temperature for 1 hour. After incubation of the cells with the radio-labeled antibody, cells were washed extensively with binding buffer (2 X) and twice with phosphate-buffered saline (PBS). Cells were lysed in 1 ml of 0.5M NaOH, and total radioactivity measured with a gamma counter.

[5] = system: endogenous c-jun kinase (JNK); experiment: JNK immune-complex kinase assay in transfected 3T3 cells; assay type: cell-based, murine; details: 3T3 cells 24 hours after transfection, absence of RANK-L stimulation
Description: This example describes evaluating murine 3T3 cells transfected with plasmids containing DNA encoding human FEO RANK (SEQ ID NO:9), and murine 3T3 cells expressing recombinant DNA encoding human wild type RANK (SEQ ID NO:1) for their relative ability to activate endogenous c-jun kinase (JNK) in the absence of RANK-L stimulation. JNK is known to be activated as a consequence of RANK signal transduction.
For JNK assays, whole cell extracts were prepared from 3T3 cells 24 hours after transfection. Cells were lysed in a buffer containing 20 mM HEPES, pH 7.4, 2 mM EGTA, 50 mM β-glycerol phosphate, 1 mM DTT, 1 mM sodium orthovanadate, 1% Triton-X 100, 10% glycerol and the protease inhibitors leupeptin, pepstatin A, and PMSF. Clarified lysates were immunoprecipitated with 1 μg each anti-JNK (FL) and anti-JNK (C17) antibodies (both from Santa Cruz Biotechnology, Inc. Santa Cruz, Calif.). […] JNK activity was determined by an immune-complex assay using 1 μg of a fusion protein of glutathione-S-transferase and amino acids 1-169 of […] (GST-cJun (1-169)) (UBI, Lake Placid, N.Y.) and 5 μCi of [^32P]-ATP as substrate in 40 μl of assay buffer at 30° C. for 20 min. […]

Molecule: TNFα [reference compound]
- MMP-9 mRNA elevation [1]: not increased
- TRAP mRNA elevation [2]: about 2.3 fold

B1: RANKL: RANK ligand used to treat RAW264.7 reporter cells; form not specified (protein)
chain: MRRASRDYTKYLRGSEEMGGGPGAPHEGPLHAPPPPAPHQPPAASRSMFVALLGLGLGQVVCSVALFFYFRAQMDPNRISEDGTHCIYRILRLHENADFQDTTLESQDTKLIPDSCRRIKQAFQGAVQKELQHIVGSQHIRAEKAMVDGSWLDLAKRSKLEAQPFAHLTINATDIPSGSHKVSLSSWYHDRGWAKISNMTFSNGKLIVNQDGFYYLYANICFRHHETSGDLATEYLQLMVYVTKTSIKIPSSHTLMKGGSTKYWSGNSEFHFYSINVGGFFKLRSGEEISIEVSNPSLLDPDQDATYFGAFKVRDID
- cell surface expression of the hIL-2 αR [3]: increase
- time to maximal level of hIL-2 α receptor expression [3]: ≤ 48 h

B2: RANK-L: RANK ligand, Type 2 transmembrane protein that binds to and activates RANK; human full-length SEQ ID NO:6 (protein, listed as Homo sapiens)
chain: MRRASRDYTKYLRGSEEMGGGPGAPHEGPLHAPPPPAPHQPPAASRSMFVALLGLGLGQVVCSVALFFYFRAQMDPNRISEDGTHCIYRILRLHENADFQDTTLESQDTKLIPDSCRRIKQAFQGAVQKELQHIVGSQHIRAEKAMVDGSWLDLAKRSKLEAQPFAHLTINATDIPSGSHKVSLSSWYHDRGWAKISNMTFSNGKLIVNQDGFYYLYANICFRHHETSGDLATEYLQLMVYVTKTSIKIPSSHTLMKGGSTKYWSGNSEFHFYSINVGGFFKLRSGEEISIEVSNPSLLDPDQDATYFGAFKVRDID
- transcriptional activation, reporter detected on the cell surface [4]: resulted in transcription of muIL-4R

B3: FEO RANK: mutated form of RANK isolated from patients with familial expansile osteolysis (SEQ ID NOS:9 and 10), expressed from transfected DNA (protein, listed as Homo sapiens)
chain: MAPRARRRRPLFALLLLCALLLLCALLARLQVALQIAPPCTSEKHYEHLGRCCNKCEPGKYMSSKCTTTSDSVCLPCGPDEYLDSWNEEDKCLLHKVCDTGKALVAVVAGNSTTPRRCACTAGYHWSQDCECCRRNTECAPGLGAQHPLQLNKDTVCKPCLAGYFSDAFSSTDKCRPWTNCTFLGKRVEHHGTEKSDAVCSSSLPARKPPNEPHVYLPGLIILLLFASVALVAAIIFGVCYRKKGKALTANLWHWINEACGRLSGDKESSGDSCVSTHTANFGQQGACEGVLLLTLEEKTFPEDMCYPDQGGVCQGTCVGGGPYAQGEDARMLSLVSKTEIEEDSFRQMPTEDEYMDRPSQPTDQLLFLTEPGSKSTPPFSEPLEVGENDSLSQCFTGTQSTVGSESCNCTEPLCRTDWTPMSSENYLQKEVDSGHCPHWAASPSPNWADVCTGCRNPPGEDCEPLVGSPKRGPLPQCAYGMGLPPEEEASRTEARDQPEDGADGRLPSSARAGAGSGSSPGGQSPASGNVTGNSNSTFISSGQVMNFKGDIIVVYVSQTSQEGAAAAAEPMGRPVQEETLARRDSFAGNGPRFPDPCGGPEGLREPEKASRPVQEQGGAKA
- activation of JNK [5]: activated
